Test results reported in US20090010920A1.

Molecular target: FcγRIIIa on human PBMC effector cells (heterozygous V158/F158 or allotype not stated) (human) (UniProt P08637)
Experiment: cell-based or functional assay

Chain of FcγRIIIa on human PBMC effector cells (heterozygous V158/F158 or allotype not stated) (human) (P08637 17-254): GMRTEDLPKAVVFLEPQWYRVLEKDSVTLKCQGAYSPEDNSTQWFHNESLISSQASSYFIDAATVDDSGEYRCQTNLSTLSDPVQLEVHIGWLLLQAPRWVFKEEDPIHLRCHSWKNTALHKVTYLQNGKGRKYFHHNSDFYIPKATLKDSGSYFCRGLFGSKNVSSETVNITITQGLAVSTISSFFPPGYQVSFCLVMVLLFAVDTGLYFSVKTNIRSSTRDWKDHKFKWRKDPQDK

Row | ADCC EC50, DoHH-2 target cells, human PBMCs | ADCC log(EC50), DoHH-2 target cells, human PBMCs | Substance
1 | 3 ng/mL | 0.49 log(ng/ml) | S239D/I332E alemtuzumab (antibody)
2 | 4 ng/mL | 0.6 log(ng/ml) | V264I/I332E alemtuzumab (antibody)
